How the values were obtained:
Dnmt3a-CD wt = Dnmt3a-CD wt (Mus musculus, UniProt O88508 608-908); assay: fluorescence polarization; Kd1 (first complex); 0.1 mM AdoHcy; Fluorescence polarization: 10 nM duplex, 0.1 mM AdoHcy, Dnmt3a reaction buffer (composition not given), 25 °C; enzyme up to 600-800 nM; conditions: protein: recombinant; tags: His6 (N-terminal in Methods, C-terminal in Results); chain copies: 2; label: 5'-FAM on strand 1 (hexamethylene linker); blunt
Dnmt3a-CD R200A = Dnmt3a-CD R200A (Mus musculus, UniProt O88508 608-908, R786A); assay: fluorescence polarization; Kd1; 0.1 mM AdoHcy; Fluorescence polarization: 10 nM duplex, 0.1 mM AdoHcy, Dnmt3a reaction buffer (composition not given), 25 °C; enzyme up to 600-800 nM; conditions: protein: recombinant; tags: His6; chain copies: 2; label: 5'-FAM on strand 1 (hexamethylene linker); blunt
Dnmt3a-CD R200E = Dnmt3a-CD R200E (Mus musculus, UniProt O88508 608-908, R786E); assay: as above; conditions: protein: recombinant; tags: His6; chain copies: 2; label: 5'-FAM on strand 1 (hexamethylene linker); blunt
Dnmt3a-CD R200K = Dnmt3a-CD R200K (Mus musculus, UniProt O88508 608-908, R786K); assay: as above; conditions: protein: recombinant; tags: His6; chain copies: 2; label: 5'-FAM on strand 1 (hexamethylene linker); blunt
Sequence of Dnmt3a-CD R200K (O88508 608-908 R786K): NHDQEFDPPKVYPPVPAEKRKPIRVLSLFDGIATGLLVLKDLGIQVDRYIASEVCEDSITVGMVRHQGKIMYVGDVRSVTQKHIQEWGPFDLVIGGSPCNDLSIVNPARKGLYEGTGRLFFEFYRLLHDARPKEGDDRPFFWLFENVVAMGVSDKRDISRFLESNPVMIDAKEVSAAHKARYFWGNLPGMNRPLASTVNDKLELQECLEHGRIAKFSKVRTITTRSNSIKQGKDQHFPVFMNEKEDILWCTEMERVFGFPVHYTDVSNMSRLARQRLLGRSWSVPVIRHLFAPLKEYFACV

Sequence of Dnmt3a-CD wt (O88508 608-908): as the sequence (O88508 608-908 R786K) above, with K179R counted along it
Sequence of Dnmt3a-CD R200E (O88508 608-908 R786E): as the sequence (O88508 608-908 R786K) above, with K179E counted along it
Sequence of Dnmt3a-CD R200A (O88508 608-908 R786A): as the sequence (O88508 608-908 R786K) above, with K179A counted along it

B1: fGCGC/CGCG (dsDNA)
DNA 1: CTGAATACTACTTGCGCTCTCTAACCTGAT
DNA 2: ATCAGGTTAGAGAGCGCAAGTAGTATTCAG
- Kd (Dnmt3a-CD wt): 73 ± 17 nM
- Kd (Dnmt3a-CD R200A): 79 ± 17 nM
- Kd (Dnmt3a-CD R200E): 159 ± 37 nM
- Kd (Dnmt3a-CD R200K): 55 ± 14 nM
